Data: PMC4823828, “A squalene synthase-like enzyme initiates production of tetraterpenoid hydrocarbons in Botryococcus braunii Race L” (Nature Communications, 2016)

Tests used:
SlSS = target: T1, SlSS (Solanum lycopersicum, UniProt A0A3Q7ETS2); assay: radioactive TLC assay; type: biochemical; settings: labelled compound (3H), 10 μM, 2 mM NADPH, 20 mM MgCl2, MOPS pH 6.8, 37 °C
T1 construct: gene SQS1; SlSS delta387-411: C-terminal transmembrane domain deleted, N-terminal 6xHis (pET28a), E. coli BL21(DE3), Ni-NTA; NM_001247787 assigned to SlSS by judgement

BSS (SS from race B) = target: T2, BSS (SS from race B) (Botryococcus braunii, UniProt Q9SDW9); assay: radioactive TLC assay; type: biochemical; settings: labelled compound (3H), 10 μM, 2 mM NADPH, 20 mM MgCl2, MOPS pH 6.8, 37 °C
T2 construct: BSS delta399-461: C-terminal transmembrane domain deleted, N-terminal 6xHis (pET28a), E. coli BL21(DE3), Ni-NTA

LSS (SS from race L) = target: T3, LSS (SS from race L) (Botryococcus braunii, UniProt A0A144YEA5); assay: GC-MS product assay; radioactive TLC assay; type: biochemical; settings: 10 μM substrate in radioactive assay; 2 mM NADPH, 20 mM MgCl2, MOPS pH 6.8, 37 °C; product squalene
T3 construct: LSS delta399-462: C-terminal transmembrane domain deleted, N-terminal 6xHis (pET28a), E. coli BL21(DE3), Ni-NTA

SSL-2 = target: T4, SSL-2 (Botryococcus braunii, UniProt G0Y287); assay: radioactive TLC assay; type: biochemical; settings: labelled compound (3H), 10 μM; 2 mM NADPH, 20 mM MgCl2, MOPS pH 6.8, 37 °C; product lycopaoctaene (minor)
T4 construct: SSL-2 delta392-465: C-terminal transmembrane domain deleted, N-terminal 6xHis (pET28a), E. coli BL21(DE3), Ni-NTA

[1] = target: T5, LOS (lycopaoctaene synthase) (Botryococcus braunii, UniProt A0A142ZC57); assay: GC-MS of lycopaoctaene product from GGPP; type: biochemical; settings: 20 nM squalestatin; GGPP substrate, NADPH, Mg2+, pH 6.8, 37 °C
T5 construct: LOS delta391-444: C-terminal transmembrane domain deleted from 444-residue protein, N-terminal 6xHis (pET28a), E. coli BL21(DE3), Ni-NTA

[2] = substrate: CC(C)=CCC/C(C)=C/CC/C(C)=C/CO[P@@](=O)(O)OP(=O)(O)O; assay: radioactive steady-state assay, n-hexane extraction, TLC, scintillation counting; type: biochemical, Botryococcus braunii; settings: labelled compound (3H), 2 mM NADPH, 20 mM MgCl2, MOPS pH 6.8, 37 °C, 100 nM enzyme
Source text: (§1) radioactive steady-state assay, n-hexane extraction, TLC, scintillation counting on LOS (lycopaoctaene synthase)

[3] = substrate: C/C(=C\COP(=O)(O)OP(=O)(O)O)CCC[C@H](C)CCC[C@H](C)CCCC(C)C; assay: as above; type: biochemical, Botryococcus braunii; settings: labelled compound (3H), 2 mM NADPH, 20 mM MgCl2, MOPS pH 6.8, 37 °C, 100 nM enzyme
Source text: as §1

[4] = substrate: CC(C)=CCC/C(C)=C/CC/C(C)=C/CC/C(C)=C/COP(=O)(O)OP(=O)(O)O; assay: as above; type: biochemical, Botryococcus braunii; settings: labelled compound (3H), 2 mM NADPH, 20 mM MgCl2, MOPS pH 6.8, 37 °C, 100 nM enzyme
Source text: as §1

T2 sequence (Q9SDW9 1-398): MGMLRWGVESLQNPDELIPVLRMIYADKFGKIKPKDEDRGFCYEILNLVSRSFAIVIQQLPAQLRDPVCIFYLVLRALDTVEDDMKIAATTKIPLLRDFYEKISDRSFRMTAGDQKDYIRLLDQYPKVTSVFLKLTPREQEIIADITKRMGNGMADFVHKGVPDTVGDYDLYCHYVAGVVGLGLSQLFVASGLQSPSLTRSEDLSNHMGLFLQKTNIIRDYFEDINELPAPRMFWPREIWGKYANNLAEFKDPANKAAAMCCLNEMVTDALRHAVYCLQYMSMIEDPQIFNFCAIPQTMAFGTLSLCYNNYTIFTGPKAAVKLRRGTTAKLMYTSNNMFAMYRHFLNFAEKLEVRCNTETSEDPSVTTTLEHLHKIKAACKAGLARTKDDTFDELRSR
T1 sequence (A0A3Q7ETS2 entry or part of it): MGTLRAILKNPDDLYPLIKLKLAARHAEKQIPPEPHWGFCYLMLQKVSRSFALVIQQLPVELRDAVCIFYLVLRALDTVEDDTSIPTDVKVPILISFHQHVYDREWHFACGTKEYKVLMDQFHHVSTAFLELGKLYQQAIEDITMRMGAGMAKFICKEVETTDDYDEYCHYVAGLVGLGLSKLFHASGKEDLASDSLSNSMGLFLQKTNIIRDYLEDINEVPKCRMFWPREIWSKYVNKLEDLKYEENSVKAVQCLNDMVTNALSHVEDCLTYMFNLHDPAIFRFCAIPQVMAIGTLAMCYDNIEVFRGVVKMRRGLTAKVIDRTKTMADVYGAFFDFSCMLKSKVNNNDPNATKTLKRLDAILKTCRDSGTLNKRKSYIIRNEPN
T3 sequence (A0A144YEA5 1-398): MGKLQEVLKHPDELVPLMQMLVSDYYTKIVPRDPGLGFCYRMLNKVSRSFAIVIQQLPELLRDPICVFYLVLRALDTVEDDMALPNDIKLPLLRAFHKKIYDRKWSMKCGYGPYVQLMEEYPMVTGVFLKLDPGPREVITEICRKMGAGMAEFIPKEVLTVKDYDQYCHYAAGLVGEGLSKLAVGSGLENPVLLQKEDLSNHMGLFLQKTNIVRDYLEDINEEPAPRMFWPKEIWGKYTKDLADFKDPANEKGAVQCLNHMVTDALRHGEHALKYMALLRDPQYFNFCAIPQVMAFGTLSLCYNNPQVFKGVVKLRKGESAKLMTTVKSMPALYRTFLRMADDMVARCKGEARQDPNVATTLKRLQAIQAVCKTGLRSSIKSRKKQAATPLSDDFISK
T4 sequence (G0Y287 1-391): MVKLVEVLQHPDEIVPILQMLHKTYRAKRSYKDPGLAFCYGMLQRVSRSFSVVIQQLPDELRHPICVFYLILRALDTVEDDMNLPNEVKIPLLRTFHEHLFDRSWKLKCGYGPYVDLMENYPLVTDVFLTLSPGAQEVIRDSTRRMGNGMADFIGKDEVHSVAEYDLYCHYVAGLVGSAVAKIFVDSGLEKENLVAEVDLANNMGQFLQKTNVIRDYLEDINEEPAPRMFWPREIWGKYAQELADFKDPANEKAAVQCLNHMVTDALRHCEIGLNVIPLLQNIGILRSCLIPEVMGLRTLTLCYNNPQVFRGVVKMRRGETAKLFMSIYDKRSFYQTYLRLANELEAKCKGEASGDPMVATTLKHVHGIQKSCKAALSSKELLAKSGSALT

CC(C)=CCC/C(C)=C/CC/C(C)=C/COP(=O)(O)OP(=O)(O)O [FPP]
radioactive TLC assay (SlSS; product squalene): the typical SS enzymes display SS activity as their main catalytic function
radioactive TLC assay (BSS (SS from race B); product squalene): the typical SS enzymes display SS activity as their main catalytic function
GC-MS product assay; radioactive TLC assay (LSS (SS from race L)): LSS was shown to yield squalene as its sole product in an in vitro assay

CC(C)=CCC/C(C)=C/CC/C(C)=C/CC/C(C)=C/COP(=O)(O)OP(=O)(O)O [GGPP]
radioactive TLC assay (SSL-2): allowing SSL-2 and SSL-1 plus SSL-2 to use GGPP to generate minor amounts of lycopaoctaene

C/C(=C\COP(=O)(O)OP(=O)(O)O)CCC[C@H](C)CCC[C@H](C)CCCC(C)C [PPP]
radioactive TLC assay (SlSS; product lycopadiene (minute)): BSS and SlSS also using PPP to produce minute amounts of lycopadiene
radioactive TLC assay (BSS (SS from race B); product lycopadiene (minute)): BSS and SlSS also using PPP to produce minute amounts of lycopadiene

C=C(CC[C@]12O[C@H](C(=O)O)[C@@](O)(C(=O)O)[C@](C(=O)O)(O1)[C@H](OC(=O)/C=C/[C@@H](C)C[C@@H](C)CC)[C@H]2O)[C@@H](OC(C)=O)[C@H](C)Cc1ccccc1 [squalestatin]
strong inhibition at 20 nM [1]: LOS is strongly inhibited by squalestatin (Fig. 5c), a potent SS inhibitor

B1: LOS (lycopaoctaene synthase) (Botryococcus braunii) (protein)
chain: MKYTDFLAHPDEIIPTIRMMYADYRLKNMEIKDPSVRFCYNMLNRVSRSFAMVIQQLPVELRDATCVFYLILRALDTVEDDMAIPKEVKIPMLRTFHEHLSDRSWKIKCGYGPYVDLMDNYPLVTDVYLRFDEGTKAVIKDITRRMGNGMADFIDLDEVLTIPQYDLYCHYVAGLCGIGMCKLFVDSGLEKEDLVAEEDLANQMGLFLQKNNIVRDYLEDINELPAPRMFWPKEIWGNYAKQLDEFKDPKNLDKAMLCLNHMVTDALRHCEVGLRSLSLLHNPNILRAVLIPQVMGVRTLTLVYNNPEVFRGVVKMRRGETAKIFVTTTSKLSFFRTYLQFANEMEQKCLTEAKNDPMVALTLKRVQGVQAACRAAIVKAEIAEGAKGPS
notes: LOS delta391-444: C-terminal transmembrane domain deleted from 444-residue protein, N-terminal 6xHis (pET28a), E. coli BL21(DE3), Ni-NTA
Km [2]: 130 ± 20 µM
kcat [2]: 0.0205 s⁻¹
kcat/Km [2]: 162 M⁻¹ s⁻¹
Km [3]: 110 ± 10 µM
kcat [3]: 0.00116 s⁻¹
kcat/Km [3]: 10.3 M⁻¹ s⁻¹
Km [4]: 70 ± 20 µM
kcat [4]: 0.0114 s⁻¹
kcat/Km [4]: 165 M⁻¹ s⁻¹
